Legend:
Experiment in all cases: phage ELISA
[1] = target: T1, HCoV-HKU1 Spike/S1 Protein (HCoV-HKU1, UniProt Q0ZME7 13-756)
T1 construct: domain: Spike/S1; also called HKU1-HIS
T1 sequence: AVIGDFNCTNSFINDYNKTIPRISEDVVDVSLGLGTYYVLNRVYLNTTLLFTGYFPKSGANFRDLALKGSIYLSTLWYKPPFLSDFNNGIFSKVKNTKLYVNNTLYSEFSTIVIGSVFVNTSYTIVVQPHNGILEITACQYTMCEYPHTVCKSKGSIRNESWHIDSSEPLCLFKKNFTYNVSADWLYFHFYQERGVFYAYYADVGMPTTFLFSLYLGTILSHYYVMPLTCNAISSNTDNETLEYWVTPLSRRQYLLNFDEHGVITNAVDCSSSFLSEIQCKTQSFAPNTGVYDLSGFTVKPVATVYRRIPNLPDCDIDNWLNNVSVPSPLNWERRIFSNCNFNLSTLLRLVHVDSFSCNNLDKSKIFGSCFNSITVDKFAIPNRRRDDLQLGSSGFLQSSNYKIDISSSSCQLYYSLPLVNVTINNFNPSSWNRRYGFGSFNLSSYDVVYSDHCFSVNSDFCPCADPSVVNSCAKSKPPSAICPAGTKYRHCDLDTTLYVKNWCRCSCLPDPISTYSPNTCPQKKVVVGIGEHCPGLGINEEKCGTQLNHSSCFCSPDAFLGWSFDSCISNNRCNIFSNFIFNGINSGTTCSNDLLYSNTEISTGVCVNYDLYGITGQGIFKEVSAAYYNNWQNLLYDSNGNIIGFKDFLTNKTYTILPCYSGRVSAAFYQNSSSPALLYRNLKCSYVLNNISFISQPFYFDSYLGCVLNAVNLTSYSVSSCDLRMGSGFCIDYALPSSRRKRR

[2] = target: T2, HCoV-229E Spike/S1 Protein (HCoV-229E, UniProt P15423 16-536)
T2 construct: domain: Spike/S1; also called 229E-HIS
T2 sequence: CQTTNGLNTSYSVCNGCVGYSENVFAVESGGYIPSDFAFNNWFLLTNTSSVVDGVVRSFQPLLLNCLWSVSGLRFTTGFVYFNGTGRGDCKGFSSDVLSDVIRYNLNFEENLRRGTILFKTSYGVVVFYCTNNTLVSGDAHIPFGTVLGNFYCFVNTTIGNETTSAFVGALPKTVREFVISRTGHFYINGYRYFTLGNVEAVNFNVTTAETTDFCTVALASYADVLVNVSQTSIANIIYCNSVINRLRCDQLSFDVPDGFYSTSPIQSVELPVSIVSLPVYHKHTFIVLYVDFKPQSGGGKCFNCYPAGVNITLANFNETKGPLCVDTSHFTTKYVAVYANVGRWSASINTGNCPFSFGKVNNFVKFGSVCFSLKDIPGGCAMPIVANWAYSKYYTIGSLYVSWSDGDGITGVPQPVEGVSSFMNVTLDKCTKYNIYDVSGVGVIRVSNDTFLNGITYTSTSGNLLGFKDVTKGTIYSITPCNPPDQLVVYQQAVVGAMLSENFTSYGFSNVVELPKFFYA

[3] = target: T3, HCoV-NL63 Spike/S1 Protein (HCoV-NL63, UniProt Q6Q1S2 19-717)
T3 construct: domain: Spike/S1; also called NL63-HIS
T3 sequence: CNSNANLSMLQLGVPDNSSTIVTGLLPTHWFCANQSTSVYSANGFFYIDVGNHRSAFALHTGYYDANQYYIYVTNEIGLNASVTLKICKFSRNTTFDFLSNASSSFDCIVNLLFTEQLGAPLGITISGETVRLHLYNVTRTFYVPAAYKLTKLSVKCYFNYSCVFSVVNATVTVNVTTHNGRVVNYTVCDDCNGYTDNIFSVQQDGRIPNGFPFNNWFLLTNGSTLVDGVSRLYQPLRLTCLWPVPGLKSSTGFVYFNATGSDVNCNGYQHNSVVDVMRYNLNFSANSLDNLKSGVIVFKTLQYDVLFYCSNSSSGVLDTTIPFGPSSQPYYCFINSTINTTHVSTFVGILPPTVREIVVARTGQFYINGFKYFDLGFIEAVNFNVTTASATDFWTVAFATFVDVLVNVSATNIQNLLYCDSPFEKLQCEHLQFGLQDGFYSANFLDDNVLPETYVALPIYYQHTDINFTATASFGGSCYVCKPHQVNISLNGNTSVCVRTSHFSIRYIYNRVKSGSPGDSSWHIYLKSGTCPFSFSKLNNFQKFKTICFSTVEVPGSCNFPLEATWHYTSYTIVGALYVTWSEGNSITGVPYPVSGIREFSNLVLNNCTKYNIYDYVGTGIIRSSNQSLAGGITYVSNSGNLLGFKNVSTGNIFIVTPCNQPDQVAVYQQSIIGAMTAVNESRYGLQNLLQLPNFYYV

[4] = target: T4, HCoV-OC43 Spike Protein (HCoV-OC43, UniProt P36334 14-1297)
T4 construct: also called OC43-HIS
T4 sequence: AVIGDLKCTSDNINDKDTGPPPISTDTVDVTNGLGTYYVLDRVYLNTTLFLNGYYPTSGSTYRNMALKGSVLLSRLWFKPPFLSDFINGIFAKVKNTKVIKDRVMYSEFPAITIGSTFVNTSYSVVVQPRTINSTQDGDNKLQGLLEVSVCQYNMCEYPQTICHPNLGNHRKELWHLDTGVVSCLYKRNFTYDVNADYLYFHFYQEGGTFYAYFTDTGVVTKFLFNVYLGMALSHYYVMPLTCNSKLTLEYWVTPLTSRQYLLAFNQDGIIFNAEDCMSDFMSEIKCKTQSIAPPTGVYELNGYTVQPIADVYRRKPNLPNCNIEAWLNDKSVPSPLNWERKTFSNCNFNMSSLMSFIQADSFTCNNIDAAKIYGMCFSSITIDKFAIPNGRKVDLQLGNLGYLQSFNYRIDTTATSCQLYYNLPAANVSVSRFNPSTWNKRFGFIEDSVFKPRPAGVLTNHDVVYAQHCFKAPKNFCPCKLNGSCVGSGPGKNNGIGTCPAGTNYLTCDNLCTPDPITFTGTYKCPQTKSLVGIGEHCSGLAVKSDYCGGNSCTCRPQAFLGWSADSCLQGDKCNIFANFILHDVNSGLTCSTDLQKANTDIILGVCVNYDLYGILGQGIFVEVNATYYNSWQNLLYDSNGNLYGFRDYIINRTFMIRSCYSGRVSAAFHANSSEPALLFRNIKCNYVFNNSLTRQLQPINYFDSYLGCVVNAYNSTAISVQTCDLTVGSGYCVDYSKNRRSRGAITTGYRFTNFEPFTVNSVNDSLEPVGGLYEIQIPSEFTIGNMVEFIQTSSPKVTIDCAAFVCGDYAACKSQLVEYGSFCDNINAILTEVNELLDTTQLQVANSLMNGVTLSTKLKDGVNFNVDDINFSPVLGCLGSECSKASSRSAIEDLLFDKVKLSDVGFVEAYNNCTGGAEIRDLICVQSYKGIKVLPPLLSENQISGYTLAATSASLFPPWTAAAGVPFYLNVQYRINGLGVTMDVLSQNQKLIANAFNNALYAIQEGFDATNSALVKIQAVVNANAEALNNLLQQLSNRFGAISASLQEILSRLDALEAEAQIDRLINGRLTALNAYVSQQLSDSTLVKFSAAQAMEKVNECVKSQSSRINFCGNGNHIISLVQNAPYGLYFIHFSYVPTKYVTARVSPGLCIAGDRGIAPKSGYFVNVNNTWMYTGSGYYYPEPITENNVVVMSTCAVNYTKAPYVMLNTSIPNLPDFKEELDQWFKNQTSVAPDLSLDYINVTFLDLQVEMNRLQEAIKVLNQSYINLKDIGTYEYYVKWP

Measured: binding result

B1: phage clone #30 (scFv)
scFv: QSALTQPPSASGSPGQSVTISCTGTSSDVGGYDYVSWYQQHPGKAPKLMIYEVSKRPSGVSNRFSGSKSGNTASLTISGLQAEDEADYYCSSYTSSSTFPYVFGTGTKVTVLGSRGGGGSGGGGSGGGGSLEMAEVQLVESGGGLEQPGGSLRLSCAASGFTFSSYAMSWVRQAPGKGLEWVSAISASGNSTFYADSVKGRFTISRDNSKHTLDLQMNSLRADDTAVYYCARNSDVWGQGTLVTVSSTSGQAGQ
no binding: all assays above

B2: phage clone #20 (scFv)
scFv: SYVLTQPPSASGTPGQRVTISCSGSSSNIGSNTVNWYQQLPGTAPKLLIYSNNQRPSGVPDRFSASKSGTSASLAISGFQSEDEADYYCAAWDDSLDGYVFGTGTKVTVLGSRGGGGSGGGGSGGGGSLEMAEVQLVQSGAEVKKPGESLKISCKGSGYSFPSYWIGWVRQMPGKGLEWMGIIYPGDSDTRYSPSFQGQVTISADKSISTAYLQWSSLKASDTAMYYCARGSYTYMGGSYDYWGQGTLVTVSSTSGQAGQ
no binding: all assays above

B3: phage clone #13 (scFv)
scFv: QSVLTQPPSASGTPGQRVTISCSGSSSNIGSNYVYWYQQLPGTAPKLLIYRNNQRPSGVPDRFSGSKSGTSASLAISGLRSEDEADYYCAAWDDSLSGPNYVFGTGTKVTVLGSRGGGGSGGGGSGGGGSLEMAQVQLVQSGAEVKKPGSSVKVSCKASGGTFSSYAISWVRQAPGQGLEWMGWISGYNGNTNYAQKLQGRVTMTTDTSTSTAYMELRSLRSDDTAVYYCARTGWSKGEKVTTWGEWFYVDYWGQGTLVTVSSTSGQAGQ
no binding: all assays above

B4: phage clone #19 (scFv)
scFv: QSALTQPASVSGSPGQSITISCTGTSSDVGGYNYVSWYQQHPGKVPKLMIYEVSNRPSGVSNRFSGSKSGNTASLTISGLQAEDEADYYCSSYTSGDTLVFGGGTKVTVLGSRGGGGSGGGGSGGGGSLEMAELQLVESGGGVVQPGRSPRLSCAASGFTFSNYPMHWVRQAPGKGLEWVAVISYDGNHKYYADSLEGRFSISRDNSKNTLYLQMNSLTAADTAVYYCARGGGMGGLDSWGQGTLVTVSSTSGQAGQ
no binding: all assays above

Reference: patent US20230141962A1 (published 2023)
